In the RNAGym collection of RNA variant scans (doi:10.7554/elife.80360) one finds self-cleavage data, which are given here for 167 variants.

Sequences and labels used below:
B1: HDV Ribozyme (parent)
chain: GGCCGGCAUGGUCCCAGCCUCCUCGCUGGCGCCGGCUGGGCAACAUUCCGAGGGGACCGUCCCCUCGGUAAUGGCGAAUGGGACCCA

Variants of B1 are the subject of the data set. The experiment in a line: self-cleavage, relative activity (ratio to wild type); higher = more cleavage; co-transcriptional.
With G28A A83C, the self-cleavage was determined as 0.0875.
The result for G28A C75G reads 0; that for C64G G82U, 0.228; that for C4U A56U, 0.898.
The result for A70G G80U reads 0.177; that for U60G U69G, 0.755; that for C21A G68C, 0.
The result for A8U A51G reads 0.767.
With C15A C48A, the self-cleavage worked out at 0.597.
The result for C26G G39A reads 0.18.
Regarding A43U G73A, the self-cleavage was found to be 0.322.
The result for G55A A70U reads 0.831; that for A43U C66U, 0.575; that for G59C C63A, 1.17.
Consider C19G U60G, for which the self-cleavage is 0.0405.
With A8U A16G, the self-cleavage amounted to 0.684.
For G67A G82C, the self-cleavage was determined as 0.224.
The result for C4G G59U reads 0.475; that for U9G G39A, 0.475.
With G25A C86A, the self-cleavage stood at 0.104.
Turning to C22G G35U, the self-cleavage amounted to 0.102.
For C3G G52C, the self-cleavage is 0.658.
The result for A83C C84G reads 0.231.
The result for A51C A87G reads 0.862.
With G25A C64U, the self-cleavage was 0.204.
As for C33A G34U, the self-cleavage is 0.0712.
The result for C3U G5C reads 0.0123; that for A71U U72C, 0.57.
Take G17C C66A: the self-cleavage was determined as 0.262.
In the case of A16C C57A, the self-cleavage came to 0.852.
The result for U12C G80A reads 0.243; that for C57G C58U, 1.07.
The result for U20G C41A reads 0.145; that for C15A A83C, 0.196; that for A45G G67A, 0.678.
The result for U37A reads 0.216; that for C30U U46A, 0.369; that for U27C A43U, 0.237.
Consider G31C G82U, for which the self-cleavage is 0.128.
With G31A G34C, the self-cleavage was 0.0272.
The result for U27G C41U reads 0.831.
Regarding G11C U69G, the self-cleavage was found to be 0.516.
As for U9A G39U, the self-cleavage came out at 0.917.
The result for C24G A42C reads 0.101; that for C19A C57G, 0.119.
As to U69G G76C, the self-cleavage is 0.77.
The result for U23G C24U reads 0.314; that for G55U A71C, 0.725.
The result for C22A U27C reads 0.317.
As to U60G C61A, the self-cleavage stood at 1.11.
The result for C36U G80C reads 0.12.
As for C22A G53U, the self-cleavage is 0.376.
G39U A43C: the self-cleavage is 0.237.
The result for C26G A87C reads 1.02; that for U20G A77C, 0.178; that for G38C G73C, 0.284.
The result for C64G G68C reads 0.264; that for C18U A56C, 0.628; that for C24U A43U, 0.182.
Turning to C24G C63A, the self-cleavage worked out at 0.18.
The result for G28A G67C reads 0.0519; that for U27C G73U, 0.0449; that for A51C C66G, 0.864.
The result for U9A C66U reads 1.01.
With G10A C84G, the self-cleavage was 0.591.
The result for C15A G38A reads 0.0978; that for C19G A70C, 0; that for C13G G80C, 0.0997.
With C14A C41G, the self-cleavage came out at 0.554.
The result for G34C C44A reads 0.0831; that for C18U A71U, 0.724; that for G29C C85A, 0.104.
The result for G31A G59A reads 0.531.
The result for G31C C86G reads 0.188; that for A16C G52U, 0.643.
With G35A C36A, the self-cleavage amounted to 0.115.
Consider G29A U72C, for which the self-cleavage came out at 0.0852.
The result for U20A G40A reads 0.0426; that for G73A C85G, 0.703; that for G29A G40C, 0.0656.
The result for C44A G55C reads 0.831; that for G25U G29A, 0.0369.
In the case of G35U C61A, the self-cleavage stood at 0.428.
As to C14U A78C, the self-cleavage came to 0.237.
The result for G52A C84A reads 0.736.
The result for G5U G52A reads 0.283.
The result for G34C G67C reads 0.123; that for U23A C62G, 0.776.
A8C U60G: the self-cleavage was 0.554.
For the variant G1A G82A, the self-cleavage turned out to be 0.
The result for G11A U23A reads 0.313; that for G2C A77C, 0.
G35A A78C: the self-cleavage is 0.0528.
The result for G2A C85U reads 0.115; that for G2U G53U, 0.0256.
The result for C4U U27G reads 0.453; that for C36G G55A, 0.117.
The result for C4A C63G reads 0.0755; that for G29A G74A, 0.0773; that for U20A U65G, 0.101.
As to C30G A51C, the self-cleavage turned out to be 0.142.
Take U12A C44U: the self-cleavage worked out at 0.
The result for G25U C75A reads 0.0941.
The result for G39A A70G reads 0.483; that for G17C A45C, 0.0519.
Regarding G28U A43U, the self-cleavage was determined as 0.0615.
As to A43U G81C, the self-cleavage was 0.181.
The result for G2U C66A reads 0.0525.
For C24G A78G, the self-cleavage is 0.173.
The result for U46G C86G reads 1.01; that for C58G G82U, 0.534.
The result for G38A A83C reads 0.151.
Turning to U37C A83G, the self-cleavage came to 0.76.
The result for C15U C19G reads 0.0997; that for A56C G59C, 1.05.
The result for C26U A42C reads 0.308; that for C18A A70U, 0.0898.
For the variant G25C G52A, the self-cleavage is 0.17.
With A77G C84A, the self-cleavage stood at 0.464.
Regarding A45G G68A, the self-cleavage amounted to 0.867.
Take C41A U65A: the self-cleavage worked out at 0.914.
Regarding G76C A77G, the self-cleavage is 1.
The result for G17C G80A reads 0.0252.
The result for U9A C21U reads 0.155.
For U9G C33U, the self-cleavage amounted to 0.87.
In the case of U37A A43C, the self-cleavage is 0.0723.
As to C18G C75U, the self-cleavage came out at 0.0615.
The result for G6U C26G reads 0.364.
The result for U12A U65G reads 0; that for U37C A87U, 1.14.
The result for G11A C36G reads 0.151.
For C7U G76A, the self-cleavage was 1.09.
The result for U72A C75U reads 0.199.
The result for C4G G17C reads 0.0354.
On to G10U G76A, for which the self-cleavage was found to be 0.652.
Regarding C33G C41U, the self-cleavage stood at 0.119.
The result for G67A A87U reads 1.06; that for C63U G67A, 0.933.
Consider C14U C75G, for which the self-cleavage is 0.353.
With C57U G76U, the self-cleavage turned out to be 0.906.
As to C44G C62A, the self-cleavage worked out at 0.875.
The result for G54U C85A reads 0.964.
Regarding G6U U20C, the self-cleavage was 0.133.
The result for C3A C21G reads 0.0115.
The result for U46G C84A reads 0.554; that for G6U A8U, 0.403; that for A8G C63U, 1.26.
In the case of A8G G68A, the self-cleavage was determined as 1.03.
Take G5A G80A: the self-cleavage amounted to 0.143.
Consider U65G G67U, for which the self-cleavage turned out to be 0.569.
The result for A71U G81A reads 0.277; that for U60A G74C, 0.225; that for C13U G17U, 0.612.
The result for C14G G28A reads 0.0415; that for U46A C61A, 0.8.
A51U C58A: the self-cleavage came out at 1.04.
As for C14A G25C, the self-cleavage was found to be 0.201.
Turning to C66A, the self-cleavage amounted to 0.975.
Take C19U A56U: the self-cleavage was found to be 0.0863.
The result for G76U reads 1.03; that for G28U G31U, 0.0923; that for U12G C44U, 0.598.
With C18A C49A, the self-cleavage was determined as 0.111.
For the variant A45C C63U, the self-cleavage is 0.727.
Consider G11U A51U, for which the self-cleavage amounted to 0.506.
In the case of C22G C49U, the self-cleavage is 0.0639.
The result for U9A G35U reads 0.264.
